According to paper doi:10.1101/2023.03.22.533679, “Selective inhibitors of the Aurora A-TPX2 protein-protein interaction exhibit in vivo efficacy as targeted anti-mitotic agents” (bioRxiv, 2023):
Where no end group is shown, it is not given here.

T1: Aurora A kinase domain (residues 126-390) with hexa-His tag (human, UniProt O14965 126-390)
T1 construct: Aurora A, human, kinase domain only, residues 126-390, Uniprot O14965; construct for biophysical assays; No removal of the His tag is described; The crystallography constructs differ (Thr287Ala or Cys290Ala; or residues 126-391 without His tag); also called Aurora A protein; pBAT4-AurAS.003 construct; source: E. coli BL21(DE3) with pUBS520, co-expressed with lambda phosphatase, purified (HisTrap, …)
T1 sequence (looked up): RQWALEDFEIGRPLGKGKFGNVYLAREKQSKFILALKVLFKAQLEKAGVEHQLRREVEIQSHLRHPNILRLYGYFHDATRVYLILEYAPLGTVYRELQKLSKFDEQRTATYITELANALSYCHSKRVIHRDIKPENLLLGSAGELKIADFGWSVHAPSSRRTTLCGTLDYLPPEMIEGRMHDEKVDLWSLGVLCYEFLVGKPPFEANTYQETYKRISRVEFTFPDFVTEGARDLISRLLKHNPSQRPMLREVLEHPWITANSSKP


Assays:
[1] = target: T1, Aurora A kinase domain (residues …); test: fluorescence polarisation; direct titration of up to 200 nM Aurora A to 11 nM labelled TPX2 peptide; 100 mM HEPES pH 7.4, 100 mM magnesium acetate, 50 mM NaCl, 0.02% P20, 1 mM DTT, 1 mM ATP, 10% (v/v) DMSO; conditions: both partners purified
[2] = target: T1, Aurora A kinase domain (residues …); test: ligand-based NMR competition; ligand-based NMR of fragment hits with Aurora A; displacement of the fragments by the TPX2 peptide fragment 7-22; conditions: both partners purified

Row | Kd [1] | binding result [2] | Binder
1 | 1.2 nM | – | SYSYDAPSDFINFSSLDDEGDTQNIDSWFEEKANLENGGGC(Alexa Fluor 488 C5 maleimide)SS (TPX2 (Targeting protein for Xenopus kinesin-like protein 2), residues 7-43, Uniprot Q9ULW0; C-terminal tail that carries the cysteine for labelling; also called labelled TPX2 peptide; labelled TPX2; source: E. coli, purified (Ni Sepharose, labelled, cleaved with HRV 3C protease, second Ni Sepharose, reversed phase C18); not shown: His-tag, N-terminal, cleaved; GB1, N-terminal, cleaved) [TPX2 peptide (residues 7-43) with C-terminal GGGCSS tail, labelled with Alexa Fluor 488]
2 | – | binds | SYSYDAPSDFINFSSL (peptide, UniProt Q9ULW0 7-22, looked up, TPX2, amino acids 7-22; Uniprot Q9ULW0 is printed for the longer TPX2 peptide of the methods) [TPX2 peptide fragment (amino acids 7-22)]
